Test results: the nanobody polyreactivity screen of Harvey et al. (2022)

assay: yeast display, Sf9 membrane polyspecificity reagent, FACS + sequencing; frameworks hold sequencing errors
In short: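 Sorting gates, low and high (top ~1%), were placed on anti-HA fluorescence to track expression and on streptavidin fluorescence to track reagent binding. A clone's polyreactivity label is taken from the gate it came out of. The reagent was 10% biotinylated, detergent-solubilized Sf9 membrane, applied for 1 hour at 4 °C to galactose-induced yeast display cells.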

Sequence | polyreactivity (PSR sort gate)
QVQLVESGGGLVQAGGRLRLSCAASGRTFRKYTMGWYRQAPGKEREFDAAITYSGGSTYYADSVKGRFTISRDNAKNTVYLQMNSLKPEDTAVYYCVTRGGYYLYYSYYYWGQGTQVTVSS | high polyreactivity
QVQLVESGGGLVQAGGRLRLSCAASGRTFRLYAMGWYRQAPGKERELVAAINYSDGSTYYADSVKGRFTISRDIAKNTVYLQMNSLKPEDSAVSYCAADLQSGYTIPTSIVEYHPFDYWGQGTQVTVSS | low polyreactivity
QVQLVESGGGLVQAGGRLRLSCAASGRTFTPYTMGWYIKAPGKEREFVAAIRTGGNTYYADSVKGRFTISRDNAKNTVYLQMNSLKPEDTAVFYCAARDRIGYRLYYWGQGTQVTVSS | high polyreactivity
QVQLVESGGGLVQAGGRLRLSCAASGRTFYKNARGWYREAPGKERELVAAITNRGGSTYYADSVKGRFTISRDNAKNTVYLQMNSLKPEDTAVYYCNARRGSTGNVARWHYDYWGQGTQVTVSS | low polyreactivity
QVQLVESGGGLVQAGGRLRLSCAASGRTFYTNTMGWYRQAPGKERELVAAISYSGSSTYYADSVKGRFTISRDNAKNTGYLQINSLKPEDTAVYYCNAVRYYRYYYWGQGTQVTVSS | low polyreactivity
QVQLVESGGGLVQAGGRLRLSCAASGRTFYYNAMGWYREAPGKERELVATIGGSTYYADSVKGRFTISRDNAKNTVYLQMNSLIPEDTAVYYCAASRYSHYPRYRLTCFYYWGQGTQVTVSS | high polyreactivity
QVQLVESGGGLVQAGGRLRLSCAASGRTFYYYPMGWYRQAPGKERELVAAISWSGGSTYYADSVKGRCTISRDNAKNTVYLQLNSLKPDDTAVNYCNAVGSKGYRMDYWGQGTQVTVSA | high polyreactivity
QVQLVESGGGLVQAGGRLRLSCAASGRTIVRYVIGWYRQAPGKERELVARISFSSGSTYYADSVKGRFTISRDNAKNTVYVQMNSLIPEDTAVYYCAASPDVSFRRFSRVVSGDYWGQGTKVTVSS | high polyreactivity
QVQLVESGGGLVQAGGRLRLSCAASGRTLFYYARGWYRQEPGKEREFVPAITWSGVSTSYADSVKGRFTISRDNAKNTVYLQLNSLKPEDTAVYYCAARGYRPRLGKWLDYNYWGQGTQVTVSS | high polyreactivity
QVQLVESGGGLVQAGGRLRLSCAASGRTLYRYAMGWYRQAPGKERELVATIRRSGGSTNYADSVKGRFTISRDNAKNTVYLQMNSLKPEDTAVYYCAAVSFKPEYYYWGQGTQVTVSS | high polyreactivity
QVQLVESGGGLVQAGGRLRLSCAASGRTVNQYAMGWYRQAPGKERELVAAISWSGGRTYYADSVKGRFTISRDNDKNTDYLQMNSLKPEDTAVYYCNKLTRDGRKEDYWGQGTQVTVSS | high polyreactivity
QVQLVESGGGLVQAGGRLRLSCAASGSIFFYYAMGWYRQAPGKERELVADITSGGTTYYADSVKGRFTISRDNAKNTVSLQMNSLIPEDTAVYYCNAGLYPGQRPDYTNYSSDYWGQGTQVTVSS | low polyreactivity
QVQLVESGGGLVQAGGRLRLSCAASGSIFIYNAMGWYRQAPGKERELVATSSSGTRTYYADSVKGRFTISRDNAQNTVYFQMNSLKPEDTAVYNCAADGPFRRTYGDWGQGPQVTVSS | low polyreactivity
QVQLVESGGGLVQAGGRLRLSCAASGSIFNANAMGWYRHAPGKEREMVAGIRSGSSTNYADSVKGRFTISRDNAKNTVYLQMNSLKPEDTAVYYCATEGYWVYGFDDEYWGQGTQVTVSS | low polyreactivity
QVQLVESGGGLVQAGGRLRLSCAASGSIFQPYAMGWSRQAPGKERELVAAINGRGGSTHYADSVKGRFTISRDNAKNTVYLQMNSLKPEDTAVYYWNRPKWYDGDYWGQGTQVTVSS | high polyreactivity
QVQLVESGGGLVQAGGRLRLSCAASGSIFRPNPMGLYRQAPGKDRELVAAITWSGDSTYYADSVKGRFTISRDNAKNTVYLQMNSLKPEDTAVYYCAADFTYQGYSANDYWGQGTQVTVSS | low polyreactivity

Sequence | polyreactivity (PSR sort gate)
QVQLVESGGGLVQAGGRLRLSCAASGSIFVGNTMGWYRQAPGKERELVAAISRTARTYYADSVKGRFTISRDNAKNTVYLQMNSLKPEDTAVYYCARASTQVKYGYEYWGQGTQVTVSS | high polyreactivity
QVQLVESGGGLVQAGGRLRLSCAASGSIFVKYAMGCYRHAPGKERELVATIRRSGTSTYYADSVKGRFTISRDNAMNTVYLQMNSLKPEDPAVYYCAALRSLLYRTYGYWGQGTQVTVSS | low polyreactivity
QVQLVESGGGLVQAGGRLRLSCAASGSIFYYNAMGWYRQAPGKERELVAAISRGGRTYYADSVKGRFTISRDNEKNTVYLQMNSLKPEDTAVYYCSARWSGKSINTISFDYWGQGTQVTVSS | high polyreactivity
QVQLVESGGGLVQAGGRLRLSCAASGSILGDNAMGWYRQAPGKERELVAAISYRGGSTYADSVKGRFTISRDNATNTVYLQKNSLKPDDTAVYYCNKTDIDDSQYREYEYWGQGTQVTVSS | low polyreactivity
QVQLVESGGGLVQAGGRLRLSCAASGSIYPDKAMGWYRQAPGKERELVAAIDKGTGSTNYADSVKGRFTISRDNAKITVNLQLNSLKPEDTAVYYCAKGWLTPRGGAWYDDYWGQGTQVTVSS | low polyreactivity
QVQLVESGGGLVQAGGRLRLSCAASGSTFARNAMGWYRQAPGKERELVPAISRGGSTYYADSVKGRFTISRDNAKNTVYLEMNSLKPEDTAVYYCAVYNFHYGYVWYPYDYWGQGTEVTVSS | high polyreactivity
QVQLVESGGGLVQAGGRLRLSCAASGSTFATYTMGWYRQPPGKERELVAAISVSGSRTYYADSVKGRFSISRDNAKNTVYLQMNSLKPEDTAVYYCAAANHKGSRMDYWGPGTQVTVSS | high polyreactivity
QVQLVESGGGLVQAGGRLRLSCAASGSTFGSNVMGWYRQAPGKERELVASISSGGRTKYADSVKGRFTISRDNAKNTVYLQMNSLKPEDTAVYYCNTRLRKKNSRDYDYWGQGTQVTVSS | low polyreactivity
QVQLVESGGGLVQAGGRLRLSCAASGSTFGWYARGWYRQAPGKERELVATISSGGSTYYADSVKGRFTISRDNAKNTVSLQMNSLKPEDTAVYYCAARIGTGVLPGRGANSHMDFWGHGTQVTVSS | low polyreactivity
QVQLVESGGGLVQAGGRLRLSCAASGSTFHHNVMGWYRQAPGKEWELVAAITSSGGSTYYADSVKGRFTISRDNAKNTVYLQMNSLKPEDTAVYYCAKDKLIFYRVGSDYWGQGTQVNVSS | low polyreactivity
QVQLVESGGGLVQAGGRLRLSCAASGSTFRGYAMGWYRQAPGKEREFVAAITYTGSSTTYADSVIGRFTISRDNAKTTVYLQMNSLKPEYTADFYCAARYVASRIYKRYYWGQGTQVTVSS | high polyreactivity
QVQLVESGGGLVQAGGRLRLSCAASGSTFRVYAMGWYRQAPGKERELFAAIRSGGGTNYADSVKGRFTISRDNAKNTVYLQMNSLKPEDTAVYYCAREAATDISPGYDYWGQGTQVTVSS | low polyreactivity
QVQLVESGGGLVQAGGRLRLSCAASGSTFSLNTMGWYRQAPGKERELFAAIRWRSGSTYYADSVKGRFTISRDNAKNTVYLHKNRLKPEDNAVYYCAVTARVTFLLRDGGRAEFDYWGQGTQVTVSS | low polyreactivity
QVQLVESGGGLVQAGGRLRLSCAASGSTFSRNTMGWYRQAPGKESELVAAISKSGGRTYYADSVKGRFTISRDNAKNTVYLQMNSLKPEDTAVYYCNGVKLLGTRGYGYLGQGTQVTVSS | high polyreactivity
QVQLVESGGGLVQAGGRLRLSCAASGSTFSYYAMGWYRHAPGKERELVAAITSSGSRTYYADSVKGRFTISRDKAKNTVYLQMNSLKPEDTAVYYCAAVYVYRTSYLISLYDYGYWGQGTQVTVSS | high polyreactivity
